Laboratory results from patent publication US20250236644A1 (University of Washington, published 2025).

How the values were obtained:
effector peptide cs221B [1] = target: T1, effector peptide cs221B; assay: FRET titration; 2 nM labeled hinge, off-target peptide varied
T1 construct: Unlabeled
T1 peptide: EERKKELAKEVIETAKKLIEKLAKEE
Description: (§1) The buffer for all FRET measurements was 20 mM Tris-HCl, 100 mM NaCl, 0.05% v/v TWEEN®20 at pH 8. Fluorescence spectra were recorded at room temperature using a FluoroMax™ spectrometer in a 1 cm×1 cm cuvette at a sample volume of 3 ml. FRET titrations and kinetics measurements were performed at 25° C. in 96-well plates (Corning 3686) using a Synergy Neo2™ plate reader. Excitation wavelength was 520 nm and emission wavelength was 665 nm (except for donor-donor controls for which emission wavelength was 555 nm, see FIG. 13B right column).
(§2) Titrations were carried out in 96-well format, with 4 replicates per plate and 24 data points per titration (23 steps of two-fold serial dilution of effector (peptide or 3hb) in the presence of double-labeled hinge at a constant concentration of 2 nM) with a final sample volume of 80 μl per well. Titration plates were incubated overnight at room temperature before measuring to ensure complete equilibration. The raw fluorescence signal (donor emission upon acceptor excitation) was fitted to the equation

effector peptide cs201B [2] = target: T2, effector peptide cs201B; assay: as above
T2 construct: Unlabeled
T2 peptide: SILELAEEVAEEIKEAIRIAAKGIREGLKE
Description: as §1, §2

effector peptide cs074B [3] = target: T3, effector peptide cs074B; assay: FRET kinetics; slope of kapp against peptide concentration
T3 construct: Chemically synthesized, unlabeled
T3 peptide: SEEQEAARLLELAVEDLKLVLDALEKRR
Description: (§3) FIG. 14. Columns 1-3: FRET kinetics using extended hinges labeled with AlexaFluor™ 555 and AlexaFluor™ 647 at a constant concentration (2 nM for cs201F and cs074F, 5 nM for cs221F) and corresponding peptides at varying concentrations. Column 4: FP kinetics using TAMRA-labeled peptide cs074B at 2 nM and extended hinge cs074F at varying concentrations. All kinetic traces (rows 1-8) were fitted using a single-exponential equation (black lines). […] The slope of the linear fit gives the observed on rate kₒₙ.
(§4) For FRET kinetics experiments a 2× hinge solution and 8 different 2× effector solutions at different concentrations were prepared separately. 40 μl of each effector solution were mixed with 40 μl hinge solution using a multichannel pipet and the measurement was started immediately after mixing. Fluorescence signals S at each concentration were fitted individually to the equation

effector protein 3hb12 = target: T4, effector protein 3hb12; assay: FRET titration; 2 nM labeled hinge, effector varied
T4 construct: Three-helix bundle built around peptide cs074B
T4 chain: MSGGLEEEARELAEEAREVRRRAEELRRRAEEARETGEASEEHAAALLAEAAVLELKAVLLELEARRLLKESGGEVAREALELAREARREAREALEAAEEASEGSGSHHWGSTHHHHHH
Description: (§5) Dotted lines in spectra indicate acceptor and donor emission peaks. B) Kinetic model describing the coupling of the conformational equilibrium to the binding equilibrium. X and Y: hinge in state X and Y, respectively; P: peptide; YP: peptide bound to hinge in state Y. k₁, k₋₁, k₋₂, and […] the microscopic rate constants. C) FP characterization of unlabeled extended hinge cs074F. From left to right: binding titration at 0.1 nM TAMRA-labeled peptide and varying hinge concentrations; time course after mixing 2 nM TAMRA-labeled peptide and 100 nM hinge fitted with a single-exponential equation (black line); apparent rate constants obtained from single-exponential kinetic fits plotted against absolute hinge concentrations (circles) and fitted with a linear equation (black line). D) FRET-based reversibility experiment using the labeled extended hinge […] introduced in C). Hinge concentration is 30 nM for all traces; 1 μM peptide is added at t=0, 3 μM unlabeled competitor hinge is added after 1 h. E) Top from left to right: schematic representation of the inpainting procedure that adds two helices to the peptide cs074B yielding a three-helix bundle (3hb); cylindrical representation of 3hb_05 bound to hinge cs074; overlay of design model and crystal structure of 3hb_05. Bottom from left to right: SEC traces for hinge cs074, 3hb_05, and a mixture of both; FRET-based titration of 2 nM extended labeled hinge cs074F and varying concentrations of 3hb_05 fitted with a standard binding isotherm (back line); Distance distributions obtained from DEER experiments as described in FIG. 2 (cs074, cs074+peptide cs074B, cs074+3hb_05).
as §2

effector protein 3hb05 = target: T5, effector protein 3hb05; assay: as above
T5 construct: Three-helix bundle built around peptide cs074B
T5 chain: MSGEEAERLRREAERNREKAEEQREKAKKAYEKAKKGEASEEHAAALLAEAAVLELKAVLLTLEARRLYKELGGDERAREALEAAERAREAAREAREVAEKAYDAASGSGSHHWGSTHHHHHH
Description: as §5, §2

effector protein 3hb03 = target: T6, effector protein 3hb03; assay: as above
T6 construct: Three-helix bundle built around peptide cs074B
T6 chain: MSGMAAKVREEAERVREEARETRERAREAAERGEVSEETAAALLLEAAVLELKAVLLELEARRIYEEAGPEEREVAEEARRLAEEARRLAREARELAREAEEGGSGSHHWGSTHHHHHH
Description: as §5, §2

effector protein 3hb11 = target: T7, effector protein 3hb11; assay: as above
T7 construct: Three-helix bundle built around peptide cs074B
T7 chain: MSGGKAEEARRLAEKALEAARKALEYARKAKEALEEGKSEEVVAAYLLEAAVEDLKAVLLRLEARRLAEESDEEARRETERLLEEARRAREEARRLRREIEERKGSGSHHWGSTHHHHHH
Description: as §5, §2

effector protein 3hb04 = target: T8, effector protein 3hb04; assay: as above
T8 construct: Three-helix bundle built around peptide cs074B
T8 chain: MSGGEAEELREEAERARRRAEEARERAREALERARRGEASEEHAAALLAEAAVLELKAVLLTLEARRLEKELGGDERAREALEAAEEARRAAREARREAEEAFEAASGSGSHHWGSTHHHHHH
Description: as §5, §2

effector protein 3hb08 = target: T9, effector protein 3hb08; assay: as above
T9 construct: Three-helix bundle built around peptide cs074B
T9 chain: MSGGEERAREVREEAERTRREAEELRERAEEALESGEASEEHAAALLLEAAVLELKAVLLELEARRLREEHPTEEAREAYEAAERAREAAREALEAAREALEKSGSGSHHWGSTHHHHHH
Description: as §5, §2

effector peptide cs074B [4] = target: T3, effector peptide cs074B; assay: as above
Description: as §5, §2

effector peptide cs201B [5] = target: T2, effector peptide cs201B; assay: FRET kinetics; slope of kapp against peptide concentration
Description: as §3, §4

effector peptide cs201B [6] = target: T2, effector peptide cs201B; assay: FRET titration; 2 nM labeled hinge, effector varied
Description: as §5, §2

effector peptide cs221B [7] = target: T1, effector peptide cs221B; assay: FRET titration, 2 nM labeled hinge
Description: as §5, §2

effector peptide cs074B [8] = target: T3, effector peptide cs074B; assay: FRET titration, 2 nM labeled hinge
Description: as §5, §2

effector protein 3hb21 [9] = target: T10, effector protein 3hb21; assay: FRET kinetics; 5 nM hinge, 3hb varied
T10 construct: Three-helix bundle built around peptide cs221B
T10 chain: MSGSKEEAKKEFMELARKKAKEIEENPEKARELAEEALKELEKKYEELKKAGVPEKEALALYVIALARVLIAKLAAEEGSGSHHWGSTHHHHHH
Description: (§6) FIG. 18. FRET-based quantitative analysis of the interaction between cs221F and 3hb21. Individual kinetic traces were obtained using a constant hinge concentration of 5 nM and varying 3hb concentrations as indicated by plot labels. Single exponential fits give apparent rate constants that increase linearly with the total 3hb concentration (points in pseudo-first order plot). The linear fit of kₐₚₚ against 3hb concentration gives an observed on rate that is 5 times faster than the observed on rate of the original peptide.
as §4

effector protein 3hb21 [10] = target: T10, effector protein 3hb21; assay: FRET kinetics; 5 nM labeled hinge, slope of kapp against 3hb concentration
effector peptide cs221B [11] = target: T1, effector peptide cs221B; assay: FRET kinetics; slope of kapp against peptide concentration
Description: as §3, §4

effector protein 3hb21 [12] = target: T10, effector protein 3hb21; assay: FRET titration; 2 nM hinge cs221F, 3hb varied
Description: as §6, §2

effector peptide cs221B [13] = target: T1, effector peptide cs221B; assay: FRET titration; 2 nM labeled hinge, effector varied
Description: as §5, §2

effector protein 3hb21 [14] = target: T10, effector protein 3hb21; assay: as above
Description: as §5, §2

effector peptide cs201B [15] = target: T2, effector peptide cs201B; assay: FRET titration, 2 nM labeled hinge
Description: as §5, §2

B1: FRET(extension) cs074F, labeled with AlexaFluor 555 and AlexaFluor 647 (designed binder)
chain: DEEVQEAVERAEELREEAEELIKKARKTGDPELLRKALEALECAVRAVEEAIKRNPDNDEAVETAVRLARELKKVAEELQERAKKTGDPELLKLALRALKVAVRAVKLAIKSNPDNEEAVKTAVRLARELLKVAEELKERAEKTGDPRLLLLAAEAIAWAIEAVFLAAKASENTEGALEAARAAVKLAEVAKRIAKLLQRDAKKEGDPELLKLALRALELAVRAVELAIKENPDNDEAVETAVRLARELKKVAEELQERAKKTGDPELLKLALRALEVAVRAVELAIKSNPDNEEAVETAKRLAEELRKVAELLEERACETGDPELQELAKRAKEVADRARELAKKSNPNNGSHHHHHH
modifications: the two introduced cysteines stochastically labeled with an equal mixture of AlexaFluor 555 C2 maleimide (donor) and AlexaFluor 647 C2 maleimide (acceptor)
notes: Extended hinge cs074 used in the FRET assays; also called extended labeled hinge cs074F
Effector peptide cs221B [1]
  Kd: 130 nM
Effector peptide cs201B [2]
  Kd: 2500 nM
Effector peptide cs074B [3]
  kon: 170000 M⁻¹ s⁻¹
Effector protein 3hb12
  Kd: < 2 nM
Effector protein 3hb05
  Kd: < 2 nM
Effector protein 3hb03
  Kd: < 2 nM
Effector protein 3hb11
  Kd: < 2 nM
Effector protein 3hb04
  Kd: < 2 nM
Effector protein 3hb08
  Kd: < 2 nM
Effector peptide cs074B [4]
  Kd: < 2 nM

B2: FRET(extension) cs201F, labeled with AlexaFluor 555 and AlexaFluor 647 (designed binder)
chain: MSGDEEVQEAVERAEELREEAEELIKKARKTGDPELLRKALEALEEAVRAVEEAICRNPDNDEAVETAVRLARELKKVAEELQERAKKTGDPELLKLALRALEVAVRAVELAIKSNPDNDEAVETAVRLARELKKVAEELQERAKKTGDPELLKLALRALEVAVRAVELAIKRNPDNEEAIKTALRLARELRKVAKELIERARKTGDAELLKKALEAARVAVEAVRLAAEYNKENAEKMAELLVELAELAREVADVLIELAEKTGDPELLKKALEVLEEAVEAVRLAIEYDPDHDEAVETAVRLARELKKVAEELQERAKKTGDPELLKLALRALEVAVRAVELAIKSNPDNEEAVETAKRLAEELRKVAELLEERAKETGDPCLQELAKRAKEVADRARELAKKSNPNNGSGSHHWGSTHHHHHH
modifications: the two introduced cysteines stochastically labeled with an equal mixture of AlexaFluor 555 C2 maleimide (donor) and AlexaFluor 647 C2 maleimide (acceptor)
notes: also called FRET-labeled hinge cs201F
Effector peptide cs201B [5]
  kon: 4500 M⁻¹ s⁻¹
Effector peptide cs201B [6]
  Kd: 20 nM
Effector peptide cs221B [7]
  binding result: no binding (tested: µM concentrations)
Effector peptide cs074B [8]
  binding result: no binding (tested: µM concentrations)

B3: FRET(extension) cs221F, labeled with AlexaFluor 555 and AlexaFluor 647 (designed binder)
chain: MSGEMVEEIEKLAEELAKKTKDCEVKKLAKKAAELAKKSTDEMKKEIVKDALELALRTKDEEVIRLALKAAVLAAESDDEEVKEVVKKALEAALKSKDEEVIRLLLLAAVLAAAAARSGSPEEKLEIAKKALELAMKSKDEEVIRLALLAAVLAARSDDEEVLKIVKKALELAMESKDVEVIRLALEAAVLAARSTDPEKKKCVYEALEKAMESKDEEEIKKELKAAVEKARSTEGSGSHHWGSTHHHHHH
modifications: the two introduced cysteines stochastically labeled with an equal mixture of AlexaFluor 555 C2 maleimide (donor) and AlexaFluor 647 C2 maleimide (acceptor)
Effector protein 3hb21 [9]
  fold faster observed on rate than the original peptide cs221B: 5 fold
Effector protein 3hb21 [10]
  kon: 13000 M⁻¹ s⁻¹
Effector peptide cs221B [11]
  kon: 2600 M⁻¹ s⁻¹
Effector protein 3hb21 [12]
  Kd: < 2 nM
  fold stronger KD than the original peptide cs221B: 20 fold
Effector peptide cs221B [13]
  Kd: 21 nM
Effector protein 3hb21 [14]
  Kd: 2.2 nM
Effector peptide cs201B [15]
  binding result: no binding (tested: µM concentrations)
Effector peptide cs074B [8]
  binding result: no binding (tested: µM concentrations)
